{"source": "patent US9505841B2", "about": "“Use of an anti-Ang2 antibody” (Samsung Electronics Co., Ltd., priority 2013, dated 2016)", "key": {"HUVEC monolayer": {"system": "HUVEC monolayer", "assay": "In vitro vascular permeability assay (FITC-dextran)", "format": "cell-based, human", "settings": "200 ng/ml Ang1 alone or 200 ng/ml Ang2 + 1 ug/ml 10D6", "description": "To see the cell permeability suppression effects of antibody 10D6, in vitro vascular permeability assay kit (Millipore) was employed. HUVEC (ATCC) cells (5×10^4) were added to a collagen-coated transwell and cultured for 2 days to prepare a confluent monolayer. It was treated with 200 ng/ml of Ang2 or 200 ng/ml of Ang1 (R&D systems) alone, or 200 ng/ml of Ang2 and 1 ug/ml of antibody 10D6, pre-incubated for 30 min. and then, treated with 100 ng/ml of LPS (Lipopolysaccharide; Sigma) or 100 ng/ml TNF-a (R&D systems) to induce the permeability of HUVEC monolayer. LPS or TNF-a weakens binding between HUVEC cells to form a gap therebetween, thereby increasing the migration of materials in the HUVEC monolayer. After 6-hour incubation for the LPS treatment group and 22-hour incubation for the TNF-a group, the upper chamber was treated with FITC-dextran (Millipore) and incubated for 18 min. The fluorescence of FITC-dextran migrated to the lower chamber was measured at 485/535 nm (Ex/Em) setting using an Envision 2104 multilabel Reader (Perkinelmer)."}, "[1]": {"system": "HL-60 cells adhered to HUVEC cells", "assay": "Binding between inflammatory cells HL-60 and HUVEC induced by TNF-a", "format": "cell-based, human", "settings": "1 ng/ml TNF-a; 0.2 ug/ml Ang1 or 0.1 ug/ml Ang2 + 0.5 ug/ml 10D6", "description": "Meanwhile, if the expression of inflammatory adhesion substances (ICAM-1, E-selectin, etc.) of vascular endothelial cells is increased, binding between the inflammatory cells and the vascular endothelial cells are accelerated and inflammatory response is thus induced. To confirm this, an experiment for measuring binding between inflammatory cells HL-60 (ATCC) and HUVEC was conducted.\nHUVEC cells (4×10^5) were cultured in a 24-mutiwell plate and treated with 0.1 ug/ml of Ang2 alone or 0.1 ug/ml of Ang2 together with 0.5 ug/ml of antibody 10D6, and a group in which 0.2 ug/ml of Ang1, and 0.1 ug/ml of Ang2 (R&D systems) and 0.5 ug/ml of Regeneron Co. antibody (RG antibody) were co-treated was included as a control group. As above, the HUVEC cells were treated with Angiopoietin and antibody and after 30-min. pre-incubation, they were treated with 1 ng/ml of TNF-a (eBioscience) to induce inflammatory response and incubated for 2 hours and 30 min.\nAfter the HUVEC cells were washed with complete media (Lonza), HL-60 cells dyed with Calcein-AM (BD bioscience) solution were added at the amount of 2.5×10^5 cells to each well and incubated for 1 hour. […] The obtained lysate was transported to a 96-well plate, and fluorescence strengths derived from the HL-60 cells were measured at 485/535 nm (Ex/Em) setting using an Envision 2104 multilabel Reader (Perkin Elmer)."}, "Ang2-Tie2 binding": {"molecular_target": "T1, Ang2-Tie2 binding (Homo sapiens, UniProt O15123)", "T1 construct": "purchased R&D Systems (hTie2-Fc)", "T1 sequence (O15123 19-496)": "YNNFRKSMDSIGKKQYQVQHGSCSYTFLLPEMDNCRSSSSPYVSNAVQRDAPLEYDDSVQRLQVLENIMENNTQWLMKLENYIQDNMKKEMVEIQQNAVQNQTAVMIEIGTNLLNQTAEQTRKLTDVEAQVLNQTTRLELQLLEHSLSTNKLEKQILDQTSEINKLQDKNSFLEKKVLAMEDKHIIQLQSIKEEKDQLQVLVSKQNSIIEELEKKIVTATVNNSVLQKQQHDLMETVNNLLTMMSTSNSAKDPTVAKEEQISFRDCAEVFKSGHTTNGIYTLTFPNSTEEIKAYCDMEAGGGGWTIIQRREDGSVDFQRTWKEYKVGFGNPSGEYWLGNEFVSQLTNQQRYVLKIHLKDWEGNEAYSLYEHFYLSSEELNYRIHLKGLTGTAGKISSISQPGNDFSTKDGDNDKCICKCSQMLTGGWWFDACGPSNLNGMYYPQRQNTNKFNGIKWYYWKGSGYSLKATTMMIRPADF", "assay": "Ang2-Tie2 binding competition ELISA", "settings": "antibody 400 nM to 0.001 nM; 400 ng/ml FLAG-tagged hAng2; hTie2-Fc coated plate", "description": "Ang2-Tie2 binding competition ELISA was conducted using the antibody binding to Ang2 prepared in Example 2-1 above.\nMore specifically, MaxiSorp™ flat-bottom plate (Nunc) of 96-well was coated with hTie2-Fc (R&D Systems) which is a protein bound with 4 ug (microgram)/ml of Fc of human IgG1. After that, the plate was washed five times with 0.05% (v/v) Tween-20-containing PBS (phosphate buffer saline) and then blocked with 1% (v/v) BSA (bovine serum albumin; Sigma)-containing PBS at a room temperature for 2 hour.\nFor Ang2:Tie2 competition ELISA, each anti-Ang2 antibody obtained in Example 2 was placed at various concentrations of 400 nM to 0.001 nM into each well coated with the hTie-2/Fc fusion protein along with 1% (v/v) BSA and 400 ng/ml of a FLAG-tagged hAng2 and then, the plate was allowed to react at a room temperature for 2 hours and washed five times with PBST. […] Lastly, 100 ul (microliter) of TMB substrate (Cell Signaling) was added to each well of the plate to induce color development for 3 min. and then, the reaction was ceased by the addition of 100 ul of Stop solution (Cell Signaling) and OD450 values were measured on a plate reader (Molecular Devices). […]"}}, "data": [{"molecule": "10D6: mouse anti-Ang2 monoclonal antibody from hybridoma KCLRF-BP-00295; heavy chain variable region SEQ ID NO: 7, light chain variable region SEQ ID NO: 9 (antibody, V domains shown, Synthetic (Heavy chain variable region of an anti-Ang2 antibody); Synthetic (Light chain variable region of anti-Ang2 antibody)) VH: DVQLQESGPGLVKPSQSLSLTCTVTGYSITSDYAWNWIRQFPGNKLEWMGYINYSGNTDYNPSLKSRSSITRDTSKNQFFLQLNSVTTGDTATYYCARGNFEGAMDYWGQGTSVTVSS VL: SIVMTQTPKFLLVSAGDRVTITCKASQSVSNDVAWYQQKPGQSPKLLIYYASNRYPGVPDRFTGSGYGTDFTFTISTVQAEDLAVYFCQQDYSSPWTFGGGTKLEIK", "values": [{"measurement": "vascular permeability increased by LPS", "setting": "HUVEC monolayer; 100 ng/ml LPS, 6 hour", "value": "decreased to the control level"}, {"measurement": "vascular permeability increased by TNF-a", "setting": "HUVEC monolayer; 100 ng/ml TNF-a, 22 hour", "value": "decreased to the control level"}, {"measurement": "binding between HUVEC cells and HL-60 cells induced by TNF-a", "setting": "[1]", "value": "remarkably suppressed"}, {"measurement": "inhibition of Ang2-Tie2 binding", "setting": "Ang2-Tie2 binding", "value": "did not inhibit"}]}]}
